# Reference: US20150079071
# Columns and labels:
# [1] = biological target: heat-shock protein 90β (HSP90β), endogenous, in conditioned medium of SCp2 cells (UniProt P11499)
# [2] = tested on: recombinant HSP90β (385903, Calbiochem/EMD Millipore)
# Chain of Flag-tagged full-length human MMP3 (FL) (chain, as listed by the source): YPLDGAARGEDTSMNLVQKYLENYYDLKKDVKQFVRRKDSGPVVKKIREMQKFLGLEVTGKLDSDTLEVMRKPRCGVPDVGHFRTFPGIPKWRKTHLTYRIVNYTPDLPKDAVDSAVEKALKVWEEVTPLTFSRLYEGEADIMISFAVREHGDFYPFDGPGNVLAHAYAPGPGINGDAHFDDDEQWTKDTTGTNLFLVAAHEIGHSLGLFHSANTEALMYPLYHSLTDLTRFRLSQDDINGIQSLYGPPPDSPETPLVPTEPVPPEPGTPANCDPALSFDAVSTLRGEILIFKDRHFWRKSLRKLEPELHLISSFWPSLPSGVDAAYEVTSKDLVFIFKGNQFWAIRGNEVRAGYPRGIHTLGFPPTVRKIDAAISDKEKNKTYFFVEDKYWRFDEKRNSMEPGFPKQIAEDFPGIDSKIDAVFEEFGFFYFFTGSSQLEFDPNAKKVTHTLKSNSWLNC
# Chain of heat-shock protein 90β (HSP90β), endogenous, in conditioned medium of SCp2 cells (P11499 2-724): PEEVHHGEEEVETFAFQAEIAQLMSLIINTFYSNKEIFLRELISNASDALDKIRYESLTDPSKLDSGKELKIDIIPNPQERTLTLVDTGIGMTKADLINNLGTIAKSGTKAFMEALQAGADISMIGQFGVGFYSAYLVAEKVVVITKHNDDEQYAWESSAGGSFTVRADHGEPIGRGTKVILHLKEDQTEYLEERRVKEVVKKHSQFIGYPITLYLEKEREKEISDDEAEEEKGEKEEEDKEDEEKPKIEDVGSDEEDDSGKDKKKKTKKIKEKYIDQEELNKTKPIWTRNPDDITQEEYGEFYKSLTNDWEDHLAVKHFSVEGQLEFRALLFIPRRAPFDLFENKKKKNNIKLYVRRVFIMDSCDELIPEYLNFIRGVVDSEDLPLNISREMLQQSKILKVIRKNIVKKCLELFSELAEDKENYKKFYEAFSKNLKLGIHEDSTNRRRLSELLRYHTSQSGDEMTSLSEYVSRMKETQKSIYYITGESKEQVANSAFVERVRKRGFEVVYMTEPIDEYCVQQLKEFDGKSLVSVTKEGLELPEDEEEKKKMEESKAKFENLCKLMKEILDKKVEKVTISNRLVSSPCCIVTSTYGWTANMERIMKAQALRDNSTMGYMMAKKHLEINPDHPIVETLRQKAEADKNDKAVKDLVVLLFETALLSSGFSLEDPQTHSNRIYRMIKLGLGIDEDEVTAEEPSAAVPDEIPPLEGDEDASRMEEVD
substance,measurement,setting,value
Flag-tagged full-length human MMP3 (FL),invasion and branching (spatial network) of mammary organoids in 3D Col-1 gels with a function-blocking antibody against HSP90β,[1],"blocking the extracellular HSP90β with inhibitory antibodies added to the medium abolished branching ability in all organoids, including controls"
same,invasion and branching (spatial network) of mammary organoids in 3D Col-1 gels with recombinant HSP90β,[2],The recombinant HSP90β added extracellularly enabled the secreted MMP3 to induce the most exuberant branched structures
